Test results taken from patent publication US20260151494A1 (ARO BIOTHERAPEUTICS, published 2026).

What was measured:
[1] = target: T1, apical domain of cynomolgus CD71 (cynomolgus, UniProt A0A2K5X958 189-383); experiment: primary ELISA; further: test concentration or dose not given here
T1 construct: domain: apical domain; also called Cyno apical domain

[2] = target: T2, human CD71 extracellular domain (human, UniProt P02786 89-760); experiment: primary ELISA; further: test concentration or dose not given here
T2 construct: also called hCD71; human CD71-ECD
T2 sequence (P02786 89-760): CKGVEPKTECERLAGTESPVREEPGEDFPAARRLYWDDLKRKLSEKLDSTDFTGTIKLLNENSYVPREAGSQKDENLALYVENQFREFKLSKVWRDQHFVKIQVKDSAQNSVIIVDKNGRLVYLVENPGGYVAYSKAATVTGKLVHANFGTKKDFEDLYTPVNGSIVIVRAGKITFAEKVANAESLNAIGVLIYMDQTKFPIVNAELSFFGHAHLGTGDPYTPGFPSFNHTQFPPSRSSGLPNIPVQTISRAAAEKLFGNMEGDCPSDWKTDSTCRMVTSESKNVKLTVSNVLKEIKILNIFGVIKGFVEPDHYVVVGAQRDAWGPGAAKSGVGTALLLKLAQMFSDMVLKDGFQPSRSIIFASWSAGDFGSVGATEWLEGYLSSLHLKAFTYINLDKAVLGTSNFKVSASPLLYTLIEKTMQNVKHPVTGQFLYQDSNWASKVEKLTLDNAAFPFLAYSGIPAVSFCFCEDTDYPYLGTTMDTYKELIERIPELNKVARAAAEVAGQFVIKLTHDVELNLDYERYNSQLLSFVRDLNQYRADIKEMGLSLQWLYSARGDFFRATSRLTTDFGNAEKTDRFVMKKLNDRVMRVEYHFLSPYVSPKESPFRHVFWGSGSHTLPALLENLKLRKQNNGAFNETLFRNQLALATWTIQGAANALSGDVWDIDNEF

[3] = target: T1, apical domain of cynomolgus CD71; experiment: primary ELISA, signal ratio to HSA
[4] = target: T2, human CD71 extracellular domain; experiment: primary ELISA, signal ratio to HSA

T1 sequence (A0A2K5X958 entry or part of it): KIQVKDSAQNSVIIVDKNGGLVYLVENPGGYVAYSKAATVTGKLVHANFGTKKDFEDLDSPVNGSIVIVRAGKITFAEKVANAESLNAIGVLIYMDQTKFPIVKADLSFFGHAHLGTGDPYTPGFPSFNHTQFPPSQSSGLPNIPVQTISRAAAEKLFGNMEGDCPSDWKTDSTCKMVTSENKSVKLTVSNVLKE

RLU [1] [RLU]	RLU [2] [RLU]	Cyno apical domain:HSA [3]	hCD71:HSA [4]	Binder
4.89e+06	2.49e+06	313	159	CD71-binding FN3 domain of SEQ ID NO: 129 (designed binder) MGGSLPAPKNLVVSRVTEDSARLSWTAPDAAFDSFEIGYFENLYLGEAIVLTVPGSERSYDLTGLKPGTEYWVQIGGVKGGNWSAPLSAIFTT
4.46e+06	4.08e+06	298	273	CD71-binding FN3 domain of SEQ ID NO: 136 (designed binder) MSLPAPKNLVVSRVTEDSARLSWTAPDAAFDSFEIDYVEFIFTGEAIGLIVPGSERSYDLTGLKPGTEYWVTIAGVKGGEWSTPLQAFLTT
4.41e+06	2.91e+06	142	94	CD71-binding FN3 domain of SEQ ID NO: 143 (designed binder) MSLPAPKNLVVSRVTEDSARLSWTAPDAAFDSFAIQYVEVIGSGEAIELIVPGSERSYDLTGLKPGTEYHVYIDGVKGGKDSKPLYAGFTT
5.56e+06	4.62e+06	259	215	CD71-binding FN3 domain of SEQ ID NO: 128 (designed binder) MSSLPAPKNLVVSRVTEDSARLSWTAPDAAFDSFEIGYFENLYLGEAIVLTVPGSERSYDLTGLKPGTEYWVQIGGVKGGNWSAPLSAIFTT
4.08e+06	2.26e+06	267	148	CD71-binding FN3 domain of SEQ ID NO: 185 (designed binder) MGSLPAPKNLVVSRVTEDSARLSWTAPDAAFDSFEISYWEHTFNGEAIILFVPGSERSYDLTGLKPGTEYWVQIGGVKGGNWSAPLSAIFTT
5.99e+06	7.01e+06	272	319	CD71-binding FN3 domain of SEQ ID NO: 178 (designed binder) MGSLPAPKNLVVSRVTEDSARLSWTAPDAAFDSFFIGYLEPQPPGEAISLYVPGSERSYDLTGLKPGTEYNVTIQGVKGGFPSDPLVAHFTT
5.27e+06	3.57e+06	95	65	CD71-binding FN3 domain of SEQ ID NO: 142 (designed binder) MSLPAPKNLVVSRVTEDSARLSWTASDAAFDSFHIWYFEKANEGEAIPLVVPGSERSYDLTGLKPGTEYDVDIGGVKGGAWSIPLGARFTT
5.11e+06	1.83e+06	387	138	CD71-binding FN3 domain of SEQ ID NO: 133 (designed binder) MSLPAPKNLVVSRVTEDSARLSWTAPDAAFDSFKIKYAEYDRYGEAIALFVPGSERSYDLTGLKPGTEYFVHIDGVKGGTDSQPLVASFTT
5.2e+06	4.51e+06	125	108	CD71-binding FN3 domain of SEQ ID NO: 123 (designed binder) MSLPAPKNLVVSRVTEDSARLSWTAPDAAFDSFAIRYWELRATGEAIPLSVPGSERSYDLTGLKPGTEYHVAISGVKGGKSSYPLRASFTT
5.49e+06	4.46e+06	296	240	CD71-binding FN3 domain of SEQ ID NO: 162 (designed binder) MSLPAPKNLVVSRVTEDSARLSWTALDAAFDSFEISYWEHTFNGEAIILFVPGSERSYDLTGLKPGTEYYVTIGGVKGGAWSPPLWAEFTT
5.77e+06	4.52e+06	245	192	CD71-binding FN3 domain of SEQ ID NO: 134 (designed binder) MSLPAPKNLVVSRVTEDSARLSWTAPDAAFDSFDINYWENESGGEAIALFVPGSERSYDLTGLKPGTEYLVTIAGVKGGWWSKPLYATFTT
4.11e+06	4.57e+06	127	141	CD71-binding FN3 domain of SEQ ID NO: 153 (designed binder) MSLPAPKNLVVSRVTEDSARLSWTAPDAAFDSFYIAYAEPRPDGEAIVLAVPGSERSYDLTGLKPGTEYSVLIHGVKGGLLSSPLGADFTT
3.62e+06	4.25e+06	259	305	CD71-binding FN3 domain of SEQ ID NO: 165 (designed binder) MSLPAPKNLVVSRVTEDSARLSWTAPDAAFDSFYIAYAEPRPDGEAILLEVPGSERSYDLAGLKPGTEYSVLIHGVKGGLLSSPLGAEFTT
5.09e+06	3.64e+06	153	109	CD71-binding FN3 domain of SEQ ID NO: 125 (designed binder) MSLPAPKNLVVSRVTEDSARLSWTAPDAAFDSFYIAYAEPRPDGEAIILLVPGSERSYDLTGLKPGTEYSVLIHGVKGGLLSSPLHAHFTT
6.22e+06	5.42e+06	125	109	CD71-binding FN3 domain of SEQ ID NO: 121 (designed binder) MSLPAPKNLVVSRVTEDSARLSWTAPDAAFDSFFIGYLEPQPPGEAITLYVPGSERSYDLTGLKPGTEYNVTIQGVKGGFPSAPLSAIFTT
4.84e+06	3.94e+06	39	32	CD71-binding FN3 domain of SEQ ID NO: 168 (designed binder) MSLPAPKNLVVSRVTEDSARLSWTAPDAAFDSFIIGYLEPQPPDEAIALYVPGSERSYDLTGLKPGTEYNVTIQGVKGGFPSLPLVATFTT
6.07e+06	5.86e+06	232	224	CD71-binding FN3 domain of SEQ ID NO: 135 (designed binder) MSLPAPKNLVVSRVTEDSARLSWTAPDAAFDSFFIGYLEPQSPGEAIALYVPGSERSYDLTGLKPGTEYNVTIQGVKGGFPSEPLIANFTT
5.93e+06	4.72e+06	83	66	CD71-binding FN3 domain of SEQ ID NO: 167 (designed binder) MSLPAPKNLVVSRVTEDSARLSWTAPDAAFDSFFIGYLEPQPPGEAIVLTVPGSERSYDLTGLKPGTEYNVTIQGVKGGFPSVPLSAAFTT
6.59e+06	5.91e+06	275	246	CD71-binding FN3 domain of SEQ ID NO: 138 (designed binder) MSLPAPKNLVVSRVTEDSARLSWTAPDAAFDSFFIGYLEPQPPGEVIHLFVPGSERSYDLTGLKPGTEYNVTIQGVKGGFPSMPLSAIFTT
6.23e+06	3.4e+06	66	36	CD71-binding FN3 domain of SEQ ID NO: 197 (designed binder) MSLPAPKNLVVSRVTEDSARLSWTAPDAAFDSFFIGYLEPQPPGEAISLLVPGSERSYDLTGLKPGTEYNVTIQGVKGGFPSEPLHAIFTT
6.09e+06	5.73e+06	14	13	CD71-binding FN3 domain of SEQ ID NO: 161 (designed binder) MSLPAPKNLVVSRVTEDSARLSWTAPDAAFDSFFIGYLEPQPPGEAIVLTVPGSERSYDLTGLKPGTEYNVTIQGVKGGFPSEPLVAHFTT
5.14e+06	1.5e+06	225	65	CD71-binding FN3 domain of SEQ ID NO: 163 (designed binder) MSLPAPKNLVVSRVTEDSARLSWTAPDAAFDSFFIGYLEPQPPGEVIHLYVPGSERSYDLTGLKPGTEYVVFIGGVKGGVWSVPLSAIFTT
5.96e+06	7.03e+06	218	257	CD71-binding FN3 domain of SEQ ID NO: 137 (designed binder) MSLPAPKNLVVSRVTEDSARLSWTAPDAAFDSFFIGYLEPQPPGEAITLYVPGSERSYDLTGLKPGTEYNVTIQGVKGGFPSDPLVAHFTT
4.71e+06	4.11e+06	45	39	CD71-binding FN3 domain of SEQ ID NO: 179 (designed binder) MSLPAPKNLVVSRVTEDSARLSWTAPDAAFDSFFIGYLEPQPPGEAITLLVPGSERSYDLTGLKPGTEYNVTIQGVKGGFPSHPLVATTTT
6.67e+06	5.56e+06	208	173	CD71-binding FN3 domain of SEQ ID NO: 147 (designed binder) MSLPAPKNLVVSRVTEDSARLSWTAPDAAFDSFFIGYLEPQPPGEAIELFVPGSERSYDLTGLKPGTEYNVTIQGVKGGFPSGPLIASFTT
6.36e+06	5.14e+06	196	158	CD71-binding FN3 domain of SEQ ID NO: 145 (designed binder) MSLPAPKNLVVSRVTEDSARLSWTAPDAAFDSFFIGYLEPQPPGEAIALLVPGSERSYDLTGLKPGTEYNVTIQGVKGGFPSHPLSAKFTT
7.01e+06	5.72e+06	199	163	CD71-binding FN3 domain of SEQ ID NO: 140 (designed binder) MSLPAPKNLVVSRVTEDSARLSWTAPDAAFDSFFIGYLEPQPPGEAIHLYVPGSERSYDLTGLKPGTEYNVTIQGVKGGFPSMPLSAIFTT
6.52e+06	4.73e+06	259	188	CD71-binding FN3 domain of SEQ ID NO: 127 (designed binder) MSLPAPKNLVVSRVTEDSARLSWTAPDAAFDSFFIGYLEPQPPGEAITLLVPGSERSYDLTGLKPGTEYNVTIQGVKGGFPSGPLQASFTT
6.09e+06	6.68e+06	251	275	CD71-binding FN3 domain of SEQ ID NO: 180 (designed binder) MSLPAPKNLVVSRVTEDSARLSWTAPDAAFDSFFIGYLEPQPPGEAISLYVPGSERSYDLTGLKPGTEYNVTIQGVKGGFPSEPLIANFTT
